Results from the RNAGym collection of RNA variant scans (doi:10.7554/elife.80360).

B1: HDV Ribozyme (parent)
chain: GGCCGGCAUGGUCCCAGCCUCCUCGCUGGCGCCGGCUGGGCAACAUUCCGAGGGGACCGUCCCCUCGGUAAUGGCGAAUGGGACCCA

Variants of: B1
Experiment: self-cleavage, relative activity (ratio to wild type); higher = more cleavage; co-transcriptional

Variant | self-cleavage
G5U C85A | 0.594
G5U C85U | 0.399
G5C C33U | 0.386
G5C U12C | 0
G5U G34C | 0
G5U G17A | 0.189
G5U G17C | 0
G5U A42G | 0.249
G5U A42U | 0.208
G5U C49G | 0.0831
G5C C49U | 0.0755
G5C C49A | 0.178
G5C C64U | 0.332
G5C G67C | 0.252
G5C G67U | 0.248
G5C G67A | 0.353
G5U G35A | 0.156
G5U G35U | 0.108
G5C G80A | 0.256
G5U C86U | 0.554
G5U C86A | 0.755
G5U C75G | 0.246
G5U C75A | 0.101
G5U C26G | 0.615

Variant | self-cleavage
G5U C26U | 0.864
G5C G76U | 0.378
G5C G76C | 0.199
G5C C30G | 0.0875
G5C C30A | 0
G5U C48G | 0.554
G5U C19G | 0
G5U C19U | 0.0923
G5U C19A | 0.256
G5U A78G | 0.332
G5U G11C | 0
G5C G34C | 0
G5C G34U | 0.0426
G5C G34A | 0.0692
G5C C32A | 0.0615
G5C C61A | 0.432
G5C U65G | 0.0978
G5C U65C | 0.222
G5C G40C | 0.256
G5C G40A | 0.208
G5U C18G | 0
G5U C18U | 0.0504
G5C C86A | 0.166
G5C C22G | 0

Variant | self-cleavage
G5C C22U | 0.151
G5U C44G | 0.217
G5U C44A | 0.119
G5C G73C | 0.0639
G5C G73A | 0.0554
G5C C41U | 0.277
G5C C41G | 0
G5C C48A | 0.0875
G5U C30U | 0.237
G5U C30G | 0
G5C U47C | 0.0594
G5C U47G | 0.0536
G5U A16G | 0.175
G5U A56G | 0.391
G5U C63U | 0.38
G5U C63G | 0
G5U C63A | 0.332
G5U G25A | 0.0346
G5U A51U | 0.688
G5U A51G | 0.875
G5U G59C | 0.415
G5C G29C | 0.0615
G5C U20A | 0
G5C U20G | 0

Variant | self-cleavage
G5U C61U | 0.399
G5U C21A | 0
G5C U27A | 0.227
G5C U27C | 0
G5C G17C | 0.151
G5C G25C | 0
G5C G25A | 0.0639
G5C C36A | 0.0489
G5C C36G | 0.0978
G5U C32U | 0.104
G5C U72A | 0.095
G5C U72G | 0.0831
G5U A83C | 0
G5U A83U | 0
G5C C57G | 0.35
G5C C57A | 0.111
G5U G40C | 0.115
G5U G40U | 0.155
G5U G40A | 0.364
G5C G35C | 0.147
G5C C62G | 0.145
G5C G28A | 0.104
G5C G28U | 0
G5C G28C | 0.208

Variant | self-cleavage
G5U C22G | 0.0615
G5C C85G | 0.0755
G5C C85A | 0.199
G5U C15G | 0
G5U C58A | 0.277
G5C C75U | 0
G5C C75G | 0.123
G5U G54C | 0.867
G5C U37A | 0.104
G5U G39U | 0.136
G5C G68C | 0
G5C G68A | 0.208
G5U C24A | 0.158
G5C U79C | 0.141
G5C U79A | 0.185
G5U C33U | 0.615
G5C C66U | 0.106
G5C C66A | 0.172
G5C G38A | 0.199
G5C G38C | 0.108
G5U C41A | 0.172
G5C G82U | 0.0594
G5C G55A | 0.175
G5C G55U | 0.17

Variant | self-cleavage
G5C C26A | 0.508
G5C G11U | 0.115
G5U G10A | 0.135
G5C G59C | 0.0791
G5C C44U | 0.0504
G5C G10A | 0.208
G5C U23G | 0.0615
G5C U23C | 0.208
G5C U23A | 0
G5C G53U | 0.291
G5C G50C | 0.151
G5U C84U | 0.219
G5U G55A | 0.467
G5U A70U | 0.222
G5U A70C | 0.415
G5U C64A | 0.499
G5U C62A | 0.369
G5U C62U | 0.467
G5U A87U | 0.293
G5U G29C | 0
G5C C84G | 0.332
G5U C66A | 0.609
G5U C66U | 0.677
G5C C58G | 0.378

Variant | self-cleavage
G5U G31A | 0.135
G5U G31U | 0.277
G5U G31C | 0.0723
G5U A8G | 0.356
G5U A8U | 0.208
G5C G52U | 0.23
G5C G6C | 0.151
G5C G6A | 0
G5C G39A | 0
G5C G39C | 0.0462
G5C G39U | 0.0346
G5C C24U | 0.252
G5C C24G | 0
G5U C14G | 0.185
G5U C14A | 0.0791
G5U C36G | 0.128
G5U C36U | 0.104
G5U C13A | 0.217
G5U C13U | 0.115
G5U C13G | 0.0978
G5C U69G | 0.111
G5C U69A | 0.111
G5U G38C | 0.0875
